Molecular target: T1, I-A(b) MHC II molecule (;mouse, UniProt P14434 24-218; P14483 28-226)
T1 construct: Custom-prepared PE-labeled tetramer
T1 sequence (MHC II alpha): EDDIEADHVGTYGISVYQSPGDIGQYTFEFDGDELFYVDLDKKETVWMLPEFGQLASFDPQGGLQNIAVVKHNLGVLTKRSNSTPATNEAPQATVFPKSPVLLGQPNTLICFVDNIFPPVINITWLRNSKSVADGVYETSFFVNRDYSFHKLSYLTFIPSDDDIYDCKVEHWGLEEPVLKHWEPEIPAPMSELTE
T1 sequence (MHC II beta): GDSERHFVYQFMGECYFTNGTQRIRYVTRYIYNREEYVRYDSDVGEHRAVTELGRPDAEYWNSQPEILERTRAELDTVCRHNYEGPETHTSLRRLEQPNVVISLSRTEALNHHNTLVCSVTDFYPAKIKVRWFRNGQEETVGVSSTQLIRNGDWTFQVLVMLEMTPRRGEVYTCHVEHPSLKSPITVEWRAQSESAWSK
Experiment: peptide binding to MHC II during preparation of I-A(b) tetramers; method not described

B1: DlaT 245-259 peptide (VAPPAPVAPSAPVAA) (peptide)
peptide: VAPPAPVAPSAPVAA
notes: Synthetic 15-mer; It was loaded in a custom PE-labeled I-A(b) tetramer; also called Tetramer DlaT^245 peptide; pep of dihydrolipoamide acyltransferase
  binding result: binds
